The record followed here is the MegaScale stability set (Tsuboyama et al. 2023).

B1: 2K2A (parent)
chain: ELREAFRLYDKEGNGYISTDVMREILAELDETLSSEDLDAMIDEIDADGSGTVDFEEFMGVMT

This series covers variants of B1. The series is described as follows: folding stability dG (cDNA display proteolysis); higher = more stable. Particulars: PBS, room temperature.
With ELREVFRLYDKEGNGYISTDVMREILAELDETLSSEDLDAMIDEIDADGSGTVDFEEFMGVMT, the “folding stability dG” value amounted to 2.6 kcal/mol.
In the case of ELREHFRLYDKEGNGYISTDVMREILAELDETLSSEDLDAMIDEIDADGSGTVDFEEFMGVMT, the “folding stability dG” value was 1.76 kcal/mol.
The figure for ELREKFRLYDKEGNGYISTDVMREILAELDETLSSEDLDAMIDEIDADGSGTVDFEEFMGVMT is 2.72 kcal/mol.
The figure for ELREQFRLYDKEGNGYISTDVMREILAELDETLSSEDLDAMIDEIDADGSGTVDFEEFMGVMT is 2.3 kcal/mol; for ELREIFRLYDKEGNGYISTDVMREILAELDETLSSEDLDAMIDEIDADGSGTVDFEEFMGVMT it is 2.78 kcal/mol.
In the case of ELREEFRLYDKEGNGYISTDVMREILAELDETLSSEDLDAMIDEIDADGSGTVDFEEFMGVMT, the “folding stability dG” value is 1.21 kcal/mol.
With ELRESFRLYDKEGNGYISTDVMREILAELDETLSSEDLDAMIDEIDADGSGTVDFEEFMGVMT the figure was 1.39 kcal/mol; with ELREYFRLYDKEGNGYISTDVMREILAELDETLSSEDLDAMIDEIDADGSGTVDFEEFMGVMT, 2.59 kcal/mol; with ELRERFRLYDKEGNGYISTDVMREILAELDETLSSEDLDAMIDEIDADGSGTVDFEEFMGVMT, 2.66 kcal/mol.
The figure for ELREWFRLYDKEGNGYISTDVMREILAELDETLSSEDLDAMIDEIDADGSGTVDFEEFMGVMT is 2.97 kcal/mol; for ELREFFRLYDKEGNGYISTDVMREILAELDETLSSEDLDAMIDEIDADGSGTVDFEEFMGVMT it is 2.74 kcal/mol.
In the case of ELREMFRLYDKEGNGYISTDVMREILAELDETLSSEDLDAMIDEIDADGSGTVDFEEFMGVMT, the “folding stability dG” value is 2.91 kcal/mol.
Regarding ELREPFRLYDKEGNGYISTDVMREILAELDETLSSEDLDAMIDEIDADGSGTVDFEEFMGVMT, the “folding stability dG” value was determined as 0.29 kcal/mol.
For ELRECFRLYDKEGNGYISTDVMREILAELDETLSSEDLDAMIDEIDADGSGTVDFEEFMGVMT, the “folding stability dG” value came out at 3.22 kcal/mol.
ELRENFRLYDKEGNGYISTDVMREILAELDETLSSEDLDAMIDEIDADGSGTVDFEEFMGVMT: the “folding stability dG” value came to 1.13 kcal/mol.
For ELRETFRLYDKEGNGYISTDVMREILAELDETLSSEDLDAMIDEIDADGSGTVDFEEFMGVMT, the “folding stability dG” value was 2.14 kcal/mol.
For ELREDFRLYDKEGNGYISTDVMREILAELDETLSSEDLDAMIDEIDADGSGTVDFEEFMGVMT, the “folding stability dG” value came to 1.18 kcal/mol.
For the variant ELRELFRLYDKEGNGYISTDVMREILAELDETLSSEDLDAMIDEIDADGSGTVDFEEFMGVMT, the “folding stability dG” value amounted to 3 kcal/mol.
With ELREGFRLYDKEGNGYISTDVMREILAELDETLSSEDLDAMIDEIDADGSGTVDFEEFMGVMT the figure was 1 kcal/mol; with ELRVAFRLYDKEGNGYISTDVMREILAELDETLSSEDLDAMIDEIDADGSGTVDFEEFMGVMT, 1.39 kcal/mol; with ELRKAFRLYDKEGNGYISTDVMREILAELDETLSSEDLDAMIDEIDADGSGTVDFEEFMGVMT, 1.64 kcal/mol.
The figure for ELRFAFRLYDKEGNGYISTDVMREILAELDETLSSEDLDAMIDEIDADGSGTVDFEEFMGVMT is 1.32 kcal/mol; for ELRNAFRLYDKEGNGYISTDVMREILAELDETLSSEDLDAMIDEIDADGSGTVDFEEFMGVMT it is 1.4 kcal/mol.
Take ELRPAFRLYDKEGNGYISTDVMREILAELDETLSSEDLDAMIDEIDADGSGTVDFEEFMGVMT: the “folding stability dG” value is 0.889 kcal/mol.
For the variant ELRQAFRLYDKEGNGYISTDVMREILAELDETLSSEDLDAMIDEIDADGSGTVDFEEFMGVMT, the “folding stability dG” value was 1.46 kcal/mol.
For ELRRAFRLYDKEGNGYISTDVMREILAELDETLSSEDLDAMIDEIDADGSGTVDFEEFMGVMT, the “folding stability dG” value was found to be 1.6 kcal/mol.
With ELRGAFRLYDKEGNGYISTDVMREILAELDETLSSEDLDAMIDEIDADGSGTVDFEEFMGVMT the figure was 0.935 kcal/mol.
With ELRAAFRLYDKEGNGYISTDVMREILAELDETLSSEDLDAMIDEIDADGSGTVDFEEFMGVMT the figure was 1.77 kcal/mol; with ELRMAFRLYDKEGNGYISTDVMREILAELDETLSSEDLDAMIDEIDADGSGTVDFEEFMGVMT, 1.39 kcal/mol; with ELRYAFRLYDKEGNGYISTDVMREILAELDETLSSEDLDAMIDEIDADGSGTVDFEEFMGVMT, 1.43 kcal/mol.
In the case of ELRWAFRLYDKEGNGYISTDVMREILAELDETLSSEDLDAMIDEIDADGSGTVDFEEFMGVMT, the “folding stability dG” value is 1.41 kcal/mol.
Regarding ELRSAFRLYDKEGNGYISTDVMREILAELDETLSSEDLDAMIDEIDADGSGTVDFEEFMGVMT, the “folding stability dG” value stood at 1.24 kcal/mol.
With ELRIAFRLYDKEGNGYISTDVMREILAELDETLSSEDLDAMIDEIDADGSGTVDFEEFMGVMT the figure was 1.43 kcal/mol.
The figure for ELRTAFRLYDKEGNGYISTDVMREILAELDETLSSEDLDAMIDEIDADGSGTVDFEEFMGVMT is 1.23 kcal/mol.
Turning to ELRHAFRLYDKEGNGYISTDVMREILAELDETLSSEDLDAMIDEIDADGSGTVDFEEFMGVMT, the “folding stability dG” value amounted to 1.36 kcal/mol.
With ELRDAFRLYDKEGNGYISTDVMREILAELDETLSSEDLDAMIDEIDADGSGTVDFEEFMGVMT the figure was 2 kcal/mol; with ELRCAFRLYDKEGNGYISTDVMREILAELDETLSSEDLDAMIDEIDADGSGTVDFEEFMGVMT, 2.85 kcal/mol; with ELRLAFRLYDKEGNGYISTDVMREILAELDETLSSEDLDAMIDEIDADGSGTVDFEEFMGVMT, 1.53 kcal/mol.
The figure for ELREAFGLYDKEGNGYISTDVMREILAELDETLSSEDLDAMIDEIDADGSGTVDFEEFMGVMT is 1.64 kcal/mol; for ELREAFALYDKEGNGYISTDVMREILAELDETLSSEDLDAMIDEIDADGSGTVDFEEFMGVMT it is 2.09 kcal/mol.
With ELREAFCLYDKEGNGYISTDVMREILAELDETLSSEDLDAMIDEIDADGSGTVDFEEFMGVMT the figure was 2.22 kcal/mol.
As to ELREAFFLYDKEGNGYISTDVMREILAELDETLSSEDLDAMIDEIDADGSGTVDFEEFMGVMT, the “folding stability dG” value stood at 1.61 kcal/mol.
In the case of ELREAFELYDKEGNGYISTDVMREILAELDETLSSEDLDAMIDEIDADGSGTVDFEEFMGVMT, the “folding stability dG” value stood at 1.8 kcal/mol.
The figure for ELREAFKLYDKEGNGYISTDVMREILAELDETLSSEDLDAMIDEIDADGSGTVDFEEFMGVMT is 2.12 kcal/mol; for ELREAFILYDKEGNGYISTDVMREILAELDETLSSEDLDAMIDEIDADGSGTVDFEEFMGVMT it is 1.93 kcal/mol; for ELREAFDLYDKEGNGYISTDVMREILAELDETLSSEDLDAMIDEIDADGSGTVDFEEFMGVMT it is 1.81 kcal/mol.
ELREAFHLYDKEGNGYISTDVMREILAELDETLSSEDLDAMIDEIDADGSGTVDFEEFMGVMT: the “folding stability dG” value stood at 1.72 kcal/mol.
ELREAFLLYDKEGNGYISTDVMREILAELDETLSSEDLDAMIDEIDADGSGTVDFEEFMGVMT: the “folding stability dG” value was 1.93 kcal/mol.
The figure for ELNEAFRLYDKEGNGYISTDVMREILAELDETLSSEDLDAMIDEIDADGSGTVDFEEFMGVMT is 1.34 kcal/mol.
With ELPEAFRLYDKEGNGYISTDVMREILAELDETLSSEDLDAMIDEIDADGSGTVDFEEFMGVMT the figure was 0.63 kcal/mol.
Take ELAEAFRLYDKEGNGYISTDVMREILAELDETLSSEDLDAMIDEIDADGSGTVDFEEFMGVMT: the “folding stability dG” value was determined as 1.99 kcal/mol.
As for ELKEAFRLYDKEGNGYISTDVMREILAELDETLSSEDLDAMIDEIDADGSGTVDFEEFMGVMT, the “folding stability dG” value was determined as 1.86 kcal/mol.
The figure for ELSEAFRLYDKEGNGYISTDVMREILAELDETLSSEDLDAMIDEIDADGSGTVDFEEFMGVMT is 1.42 kcal/mol; for ELMEAFRLYDKEGNGYISTDVMREILAELDETLSSEDLDAMIDEIDADGSGTVDFEEFMGVMT it is 1.93 kcal/mol; for ELVEAFRLYDKEGNGYISTDVMREILAELDETLSSEDLDAMIDEIDADGSGTVDFEEFMGVMT it is 1.77 kcal/mol.
On to ELWEAFRLYDKEGNGYISTDVMREILAELDETLSSEDLDAMIDEIDADGSGTVDFEEFMGVMT, for which the “folding stability dG” value was 2.29 kcal/mol.
With ELIEAFRLYDKEGNGYISTDVMREILAELDETLSSEDLDAMIDEIDADGSGTVDFEEFMGVMT the figure was 1.99 kcal/mol; with ELHEAFRLYDKEGNGYISTDVMREILAELDETLSSEDLDAMIDEIDADGSGTVDFEEFMGVMT, 1.71 kcal/mol.
As for ELEEAFRLYDKEGNGYISTDVMREILAELDETLSSEDLDAMIDEIDADGSGTVDFEEFMGVMT, the “folding stability dG” value amounted to 2.16 kcal/mol.
The figure for ELLEAFRLYDKEGNGYISTDVMREILAELDETLSSEDLDAMIDEIDADGSGTVDFEEFMGVMT is 2.2 kcal/mol; for ELDEAFRLYDKEGNGYISTDVMREILAELDETLSSEDLDAMIDEIDADGSGTVDFEEFMGVMT it is 1.62 kcal/mol; for ELQEAFRLYDKEGNGYISTDVMREILAELDETLSSEDLDAMIDEIDADGSGTVDFEEFMGVMT it is 1.71 kcal/mol.
ELGEAFRLYDKEGNGYISTDVMREILAELDETLSSEDLDAMIDEIDADGSGTVDFEEFMGVMT: the “folding stability dG” value was found to be 1.48 kcal/mol.
The figure for ELFEAFRLYDKEGNGYISTDVMREILAELDETLSSEDLDAMIDEIDADGSGTVDFEEFMGVMT is 2.11 kcal/mol; for ELTEAFRLYDKEGNGYISTDVMREILAELDETLSSEDLDAMIDEIDADGSGTVDFEEFMGVMT it is 1.44 kcal/mol.
The figure for ELYEAFRLYDKEGNGYISTDVMREILAELDETLSSEDLDAMIDEIDADGSGTVDFEEFMGVMT is 2.48 kcal/mol; for ELREAWRLYDKEGNGYISTDVMREILAELDETLSSEDLDAMIDEIDADGSGTVDFEEFMGVMT it is 2.18 kcal/mol; for ELREAIRLYDKEGNGYISTDVMREILAELDETLSSEDLDAMIDEIDADGSGTVDFEEFMGVMT it is 0.623 kcal/mol.
With ELREATRLYDKEGNGYISTDVMREILAELDETLSSEDLDAMIDEIDADGSGTVDFEEFMGVMT the figure was 0.266 kcal/mol; with ELREANRLYDKEGNGYISTDVMREILAELDETLSSEDLDAMIDEIDADGSGTVDFEEFMGVMT, 0.361 kcal/mol.
Regarding ELREAQRLYDKEGNGYISTDVMREILAELDETLSSEDLDAMIDEIDADGSGTVDFEEFMGVMT, the “folding stability dG” value amounted to 0.462 kcal/mol.
Turning to ELREASRLYDKEGNGYISTDVMREILAELDETLSSEDLDAMIDEIDADGSGTVDFEEFMGVMT, the “folding stability dG” value came to 0.268 kcal/mol.
With ELREAERLYDKEGNGYISTDVMREILAELDETLSSEDLDAMIDEIDADGSGTVDFEEFMGVMT the figure was 0.086 kcal/mol; with ELREAVRLYDKEGNGYISTDVMREILAELDETLSSEDLDAMIDEIDADGSGTVDFEEFMGVMT, 0.529 kcal/mol; with ELREAYRLYDKEGNGYISTDVMREILAELDETLSSEDLDAMIDEIDADGSGTVDFEEFMGVMT, 0.586 kcal/mol.
On to ELREAGRLYDKEGNGYISTDVMREILAELDETLSSEDLDAMIDEIDADGSGTVDFEEFMGVMT, for which the “folding stability dG” value is -0.227 kcal/mol.
On to ELREAHRLYDKEGNGYISTDVMREILAELDETLSSEDLDAMIDEIDADGSGTVDFEEFMGVMT, for which the “folding stability dG” value was found to be 0.31 kcal/mol.
For ELREAPRLYDKEGNGYISTDVMREILAELDETLSSEDLDAMIDEIDADGSGTVDFEEFMGVMT, the “folding stability dG” value amounted to 0.281 kcal/mol.
With ELREAKRLYDKEGNGYISTDVMREILAELDETLSSEDLDAMIDEIDADGSGTVDFEEFMGVMT the figure was 0.192 kcal/mol; with ELREACRLYDKEGNGYISTDVMREILAELDETLSSEDLDAMIDEIDADGSGTVDFEEFMGVMT, 1.79 kcal/mol; with ELREAMRLYDKEGNGYISTDVMREILAELDETLSSEDLDAMIDEIDADGSGTVDFEEFMGVMT, 0.623 kcal/mol.
The figure for ELREARRLYDKEGNGYISTDVMREILAELDETLSSEDLDAMIDEIDADGSGTVDFEEFMGVMT is 0.468 kcal/mol; for ELREALRLYDKEGNGYISTDVMREILAELDETLSSEDLDAMIDEIDADGSGTVDFEEFMGVMT it is 0.489 kcal/mol.
With ELREAARLYDKEGNGYISTDVMREILAELDETLSSEDLDAMIDEIDADGSGTVDFEEFMGVMT the figure was 0.316 kcal/mol; with ELREADRLYDKEGNGYISTDVMREILAELDETLSSEDLDAMIDEIDADGSGTVDFEEFMGVMT, 0.525 kcal/mol.
